The results in this text go back to patent US20110144312A1 (Kyowa Kirin, published 2011).

Experiment [1] deals with T1, SNP variant R212E of human IL-10Rα extracellular domain fused to the Fc portion of human IgG1 (human).
T1 construct: The entry already holds the change and includes the signal peptide
In words: ELISA, coated SNP variant Fc fusion R212E [E]. On the technique in general: ELISA stands for enzyme-linked immunosorbent assay.

Experiment [2] deals with T2, SNP variant V233M of human IL-10Rα extracellular domain fused to the Fc portion of human IgG1 (human).
T2 construct: The entry already holds the change and includes the signal peptide
Kind of experiment: ELISA, coated SNP variant Fc fusion V233M [F].

The target in experiment [3] is T3, Biotin-SGSTLDLYHSNGYRARVRAVDG-NH2 (human, N-terminal biotin, C-terminal amide (-NH2)).
T3 peptide: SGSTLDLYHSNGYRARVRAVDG
In words: dot blot on PVDF or nitrocellulose membrane. As for the experimental part:
(§1) Methods to detect antibody binding to peptides derived from the human IL-10Rα sequence: Multiple methods were employed to detect binding of anti-human IL-10Rα antibodies to peptides derived from the extracellular domain of human IL-10Rα that have been reported by Reineke, et al. (Reineke, et al., Protein Sci 7:951 (1998)) to be included in the IL-10 binding site of the receptor. The following amide synthesized peptides were tested: Ac-[…]-NH2, Ac-[…]-NH2, Ac-[…]-NH2, Ac-[…]-NH2, Ac-[…]-NH2 (SEQ ID NO. 81-85). In addition, the following biotinylated peptides were tested: Biotin-[…]-NH2, Biotin-[…]-NH2 (SEQ ID NO. 86-87). The amide peptides were synthesized by A&A Labs, LLC (San Diego, Calif.) and the biotinylated peptides were synthesized by GenScript (Piscataway, N.J.) both at >95% purity and reconstituted at 20 mg/ml in DMSO. In one assay design peptides were spotted at 5 μg/spot in PBS onto PVDF membranes or nitrocellulose membranes that had been prepared according to the manufacturer's instructions. The membranes were incubated with anti-IL-10Rα antibodies using standard Western blotting methods (e.g. Towbin, et al., Proc Natl Acad Sci 76:4350 (1979)). Native human IL-10Ra:hFc and heat denatured human IL-10Ra:hFc were also spotted at 1 μg/spot on the membranes as controls. Negative controls included an irrelevant peptide and isotype controls. […] None of the antibodies bound to the spotted denatured protein or to any of the peptides derived from the human IL-10Ra extracellular domain or the irrelevant peptide.

The target of experiment [4] is T4, Biotin-SGSTYSIFSHFREYEIAIRKV-NH2 (human, N-terminal biotin, C-terminal amide (-NH2)).
T4 peptide: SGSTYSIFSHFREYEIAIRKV
Kind of experiment: dot blot on PVDF or nitrocellulose membrane. As for the experimental part:
as §1

T1 sequence (chain, as listed by the source R212E R212E limits assumed): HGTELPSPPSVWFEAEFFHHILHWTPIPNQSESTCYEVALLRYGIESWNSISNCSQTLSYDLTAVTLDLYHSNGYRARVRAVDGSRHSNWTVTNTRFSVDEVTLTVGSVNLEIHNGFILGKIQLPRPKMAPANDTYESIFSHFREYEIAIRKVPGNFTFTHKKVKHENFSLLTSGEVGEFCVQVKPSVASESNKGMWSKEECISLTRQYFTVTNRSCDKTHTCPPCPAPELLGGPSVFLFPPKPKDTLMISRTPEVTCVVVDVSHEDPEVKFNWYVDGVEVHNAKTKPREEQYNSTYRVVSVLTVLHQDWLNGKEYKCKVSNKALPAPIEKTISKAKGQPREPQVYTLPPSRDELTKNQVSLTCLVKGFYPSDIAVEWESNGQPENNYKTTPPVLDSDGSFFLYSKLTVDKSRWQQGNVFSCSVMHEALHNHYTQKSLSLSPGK

B1: 136C8 (antibody, V domains shown)
VH: EVQLVESGGGLVQPGGSLRLSCAASGFTFSSYSMNWVRQAPGKGLEWVSYISTRSSTIYYADSVKGRFTISRDNAKNSLYLQMNSLRDEDTAVYYCARENYYGSGSYEDYFDYWGQGTLVTVSS
VL: EIVLTQSPATLSLSPGERATLSCRASQSVSSYLAWYQQKPGQAPRLLIYDASNRATGIPARFSGSGSGTDFTLTISSLEPEDFAVYYCQQRSNWPIFTFGPGTKVDIK
notes: Hybridoma antibody, human IgG2, kappa light chain; also called human anti-human IL-10Rα monoclonal antibody 136C8; hybridoma deposit PTA-9132
For the molecule B1, the binding result was “binds” in experiment [1], “binds” in experiment [2], “no binding (tested: 5 µg/spot)” in experiment [3] and “no binding (tested: 5 µg/spot)” in experiment [4].
